# Laboratory results from publication PMC5608694, “The crystal structure of the regulatory domain of the human sodium-driven chloride/bicarbonate exchanger” (Scientific Reports, 2017).
# Molecular target: the molecule itself
# Test: SEC; 1 mg of ntcNDCBE on Superdex 200 10/300 GL; eluted at 14.2 mL, compared with molecular weight standards
protein,measurement,value
"truncated (ΔVR1) N-terminal cytoplasmic domain of human sodium-driven chloride/bicarbonate exchanger NDCBE-D (domain or fragment, UniProt Q2Y0W8-4 40-344, looked up, human NDCBE (SLC4A8) isoform D, N-terminal cytoplasmic core domain, amino acids 40-344 (made by mutagenesis from the 40-425 construct); numbers count on: isoform D (Q2Y0W8-4); Forms a homodimer in the crystal and in solution; Codon-optimised gene in pET-M11; His tag removed with TEV protease; also called ntcNDCBE; regulatory N-terminal domain of human NDCBE; source: E. coli BL21 Gold, purified …) DTPSQRVQFILGTEEDEEHVPHELFTELDEICMKEGEDAEWKETARWLKFEEDVEDGGERWSKPYVATLSLHSLFELRSCLINGTVLLDMHANSIEEISDLILDQQELSSDLNDSMRVKVREALLKKHHHQNEKKRNNLIPIVRSFAEVGKKQSDPHLMDKHGQTVSPQSVPTTNLEVKNGVNCEHSPVDLSKVDLHFMKKIPTGAEASNVLVGEVDILDRPIVAFVRLSPAVLLSGLTEVPIPTRFLFILLGPVGKGQQYHEIGRSMATIMTDEIFHDVAYKAKERDDLLAGIDEFLDQVTVLP",stoichiometry N,2
